From patent publication US20250115654A1, “PHARMACEUTICAL COMPOSITION OF GLP-1 RECEPTOR AND GIP RECEPTOR DUAL AGONIST, AND USE THEREOF” (FUJIAN SHENGDI PHARMACEUTICAL CO., LTD., priority 2021, published 2025)
Numbered stars: 1 amine (or outer) side, 2 acyl side, 3 side chain; on linkers, the order of the positions; unused ones are H or OH. Square brackets hold non-standard residues; d marks the D form. Side chains are listed from the residue outwards. γGlu = O=C(O)[C@H](CCC(=O)[*:2])N[*:1]; AEEA = NCCOCCOCC(=O)O; Aib = CC(C)(N)C(=O)O

T1: human glucose-dependent insulinotropic polypeptide receptor (GIPR) (human, UniProt P48546)
T1 sequence: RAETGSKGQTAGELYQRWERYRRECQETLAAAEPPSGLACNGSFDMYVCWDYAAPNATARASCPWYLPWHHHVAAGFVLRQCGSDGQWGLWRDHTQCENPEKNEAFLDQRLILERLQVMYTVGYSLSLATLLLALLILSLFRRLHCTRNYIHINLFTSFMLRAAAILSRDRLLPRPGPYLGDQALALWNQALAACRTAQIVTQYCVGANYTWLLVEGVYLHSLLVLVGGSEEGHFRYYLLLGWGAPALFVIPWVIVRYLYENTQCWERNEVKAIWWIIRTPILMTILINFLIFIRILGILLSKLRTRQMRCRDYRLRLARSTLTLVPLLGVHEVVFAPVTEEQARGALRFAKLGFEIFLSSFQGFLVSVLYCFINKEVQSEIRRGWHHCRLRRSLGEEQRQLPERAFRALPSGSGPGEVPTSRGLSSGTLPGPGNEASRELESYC


Columns and labels:
[1] = biological target: human glucagon-like peptide-1 receptor (GLP-1R) (human, UniProt P43220); assay: cell-based or functional assay
[2] = biological target: T1, human glucose-dependent insulinotropic …; assay: cell-based or functional assay

Row | Binder | Activity against human GLP-1R (EC50 nM); cAMP, HTRF [1] [nM] | Activity against human GIPR (EC50 nM); cAMP, HTRF [2] [nM]
1 | H-Y[Aib]EGTFTSDYSIYLEK([AEEA-AEEA-γGlu-C20‑OH])IAAQEFINWLIAGGPSSGAPPPS-NH2 [compound 10# H-YAibEGTFTSDYSIYLEK(OEG-OEG-yGlu-C20-OH)IAAQEFINWLIAGGPSSGAPPPS-NH2] | 0.065 | 0.056
2 | H-Y[Aib]EGTFTSDYSIYK([AEEA-AEEA-γGlu-C20‑OH])ERIAAQEFINWLIAGGPSSGAPPPS-NH2 [compound 15# H-YAibEGTFTSDYSIYK(OEG-OEG-yGlu-C20-OH)ERIAAQEFINWLIAGGPSSGAPPPS-NH2] | 0.015 | 0.23
3 | H-Y[Aib]EGTFTSDYSIYK([AEEA-AEEA-γGlu-C20‑OH])EKIAAQEFINWLIAGGPSSGAPPPS-NH2 [compound 14# H-YAibEGTFTSDYSIYK(OEG-OEG-yGlu-C20-OH)EKIAAQEFINWLIAGGPSSGAPPPS-NH2] | 0.013 | 0.13
4 | H-Y[Aib]EGTFTSDYSIYK([AEEA-AEEA-γGlu-C20‑OH])ERIAAQEFVNWLLAGGPSSGAPPPS-NH2 [compound 17# H-YAibEGTFTSDYSIYK(OEG-OEG-yGlu-C20-OH)ERIAAQEFVNWLLAGGPSSGAPPPS-NH2] | 0.022 | 0.11
5 | H-Y[Aib]EGTFTSDYSIYK([AEEA-AEEA-γGlu-C20‑OH])EKIAAQEFINWLLAGGPSSGAPPPS-NH2 [compound 16# H-YAibEGTFTSDYSIYK(OEG-OEG-yGlu-C20-OH)EKIAAQEFINWLLAGGPSSGAPPPS-NH2] | 0.029 | 0.095
6 | H-Y[Aib]EGTFTSDYSIYK([AEEA-AEEA-γGlu-C20‑OH])EKIAAQEFVNWLIAGGPSSGAPPPS-NH2 [compound 12# H-YAibEGTFTSDYSIYK(OEG-OEG-yGlu-C20-OH)EKIAAQEFVNWLIAGGPSSGAPPPS-NH2] | 0.03 | 0.17
7 | H-Y[Aib]EGTFTSDYSIYK([AEEA-AEEA-γGlu-C20‑OH])EKIAAQEFVNWLLAGGPSSGAPPPS-NH2 [compound 18# H-YAibEGTFTSDYSIYK(OEG-OEG-yGlu-C20-OH)EKIAAQEFVNWLLAGGPSSGAPPPS-NH2] | 0.013 | 0.06
8 | H-Y[Aib]EGTFTSDYSIYLEK([AEEA-AEEA-γGlu-C20‑OH])IAAQEFVNWLIAGGPSSGAPPPS-NH2 [compound 9# H-YAibEGTFTSDYSIYLEK(OEG-OEG-yGlu-C20-OH)IAAQEFVNWLIAGGPSSGAPPPS-NH2] | 0.049 | 0.04
9 | H-Y[Aib]EGTFTSDYSIYK([AEEA-AEEA-γGlu-C20‑OH])ERIAAQEFVNWLIAGGPSSGAPPPS-NH2 [compound 13# H-YAibEGTFTSDYSIYK(OEG-OEG-yGlu-C20-OH)ERIAAQEFVNWLIAGGPSSGAPPPS-NH2] | 0.017 | 0.13
